Key:
A375.S2 cells = assay: Binding and internalization at 37° C., confocal microscopy; type: cell-based, human; settings: 37° C. for 10 min, washed, 1 hour at 37° C.
Description: These targeted-liposomes were used in the cytotoxicity assay using the various cells lines, as described below. A375.S2 cells were harvested by scraping and then resuspended to obtain individualized cells and rejuvenated for 1 hour, at 37° C. About 1 million cells of each tumor type were counted and distributed into individual centrifugation tubes. The tubes were spun to obtain a cell pellet. […] Cells were treated with the liposome formulations containing either a doxorubicin payload or a fluorescent marker (Dextran Alexa Fluor 488). Treatment was terminated by adding 1 mL of washing media (serum free), vortexing briefly, and centrifuging to recover a cell pellet The cells in the pellet were resuspend in washing media, vigorously shaken for 10 minutes at 37° C. and then centrifuged again (440 rpm). The cell pellet was left in 100 μL of media, an aliquot of 8 μL was taken and placed on a glass slide for observation under a confocal microscope.

integrin αvβ3 [1] = biological target: T1, integrin αvβ3 (Homo sapiens, UniProt P06756); assay: scFv binding ELISA on integrin-coated plates; settings: detected by HRP anti-His Ab and anti-CNTO95 Ab (c508)
T1 construct: purchased Chemicon International Inc
T1 sequence (P06756 31-889 limits assumed): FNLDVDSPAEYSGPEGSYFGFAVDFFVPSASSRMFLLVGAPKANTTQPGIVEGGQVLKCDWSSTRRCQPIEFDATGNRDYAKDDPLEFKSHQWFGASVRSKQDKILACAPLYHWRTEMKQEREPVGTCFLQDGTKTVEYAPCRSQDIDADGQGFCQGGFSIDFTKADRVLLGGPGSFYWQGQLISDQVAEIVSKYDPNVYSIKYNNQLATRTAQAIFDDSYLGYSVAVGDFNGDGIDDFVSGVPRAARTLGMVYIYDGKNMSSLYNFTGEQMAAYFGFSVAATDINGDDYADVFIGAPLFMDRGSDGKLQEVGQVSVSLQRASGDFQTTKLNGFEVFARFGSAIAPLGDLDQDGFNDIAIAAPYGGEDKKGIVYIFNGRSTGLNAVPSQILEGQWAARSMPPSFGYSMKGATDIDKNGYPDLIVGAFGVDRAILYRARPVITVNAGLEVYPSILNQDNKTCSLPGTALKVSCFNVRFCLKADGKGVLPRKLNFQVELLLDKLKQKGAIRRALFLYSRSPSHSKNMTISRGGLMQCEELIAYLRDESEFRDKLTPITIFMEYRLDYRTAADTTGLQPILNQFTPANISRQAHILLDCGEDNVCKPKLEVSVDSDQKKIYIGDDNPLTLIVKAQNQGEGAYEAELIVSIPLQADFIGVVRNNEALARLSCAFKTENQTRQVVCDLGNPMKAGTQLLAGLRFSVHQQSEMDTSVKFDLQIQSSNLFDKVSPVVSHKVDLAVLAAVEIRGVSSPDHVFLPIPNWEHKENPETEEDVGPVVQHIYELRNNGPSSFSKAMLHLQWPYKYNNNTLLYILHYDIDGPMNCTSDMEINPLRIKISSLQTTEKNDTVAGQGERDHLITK
T1 sequence (P06756 891-1048 partner limits assumed): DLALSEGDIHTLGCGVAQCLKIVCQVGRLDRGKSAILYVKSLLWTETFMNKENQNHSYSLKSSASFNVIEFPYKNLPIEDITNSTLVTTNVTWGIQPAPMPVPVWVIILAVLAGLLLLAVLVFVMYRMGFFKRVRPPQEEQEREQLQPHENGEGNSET
T1 sequence (P05106 27-788 partner): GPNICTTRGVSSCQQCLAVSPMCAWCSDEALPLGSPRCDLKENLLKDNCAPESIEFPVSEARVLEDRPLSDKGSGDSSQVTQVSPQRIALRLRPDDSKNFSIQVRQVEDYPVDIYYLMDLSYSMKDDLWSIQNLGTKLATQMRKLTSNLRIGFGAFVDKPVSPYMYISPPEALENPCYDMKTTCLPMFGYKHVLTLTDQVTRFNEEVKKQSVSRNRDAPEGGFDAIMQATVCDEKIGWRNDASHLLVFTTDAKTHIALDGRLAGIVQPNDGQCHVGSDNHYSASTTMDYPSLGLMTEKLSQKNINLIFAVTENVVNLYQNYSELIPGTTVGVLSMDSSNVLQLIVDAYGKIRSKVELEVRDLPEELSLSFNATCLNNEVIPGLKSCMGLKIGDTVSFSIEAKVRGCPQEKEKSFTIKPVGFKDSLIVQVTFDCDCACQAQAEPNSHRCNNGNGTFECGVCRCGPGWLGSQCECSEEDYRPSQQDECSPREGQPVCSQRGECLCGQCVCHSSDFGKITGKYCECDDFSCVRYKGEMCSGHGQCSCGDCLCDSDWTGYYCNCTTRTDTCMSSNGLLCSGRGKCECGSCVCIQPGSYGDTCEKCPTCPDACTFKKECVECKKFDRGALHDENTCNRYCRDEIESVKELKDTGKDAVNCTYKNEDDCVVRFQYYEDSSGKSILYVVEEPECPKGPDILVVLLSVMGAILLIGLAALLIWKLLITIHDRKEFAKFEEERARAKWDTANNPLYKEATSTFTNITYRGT
Description: (§1) The binding affinity of scFv CNTO95 was measured using a validated sandwich enzyme-linked immunoassay. The 96-well plates (Coasta, high binding plate) were coated with 100 ul of integrin αvβ3 or αvβ5 (Chemicon International Inc ) at 1 ug/ml in coating buffer (0.75 g Na2CO3 and 1.45 g NaHCO3 in 500 ml H2O) and incubated overnight at 4° C. The plates were blocked with Superblock blocking buffer in PBS (Pierce) at room temperature for 1 hr. Wells were washed with PBS+0.05% Tween 20 between each step. Controls and scFv purified protein were diluted serially at 3-fold with TBST, and added to the coated wells in duplicate, and incubated at 37° C. for 2 hrs. Two methods were used to detect the binding. For anti-his ELISA 1:1000 diluted HRP mouse anti-his antibody were added to each well and incubated for 1 hr. For the anti-CNTO95 anti-idiotype ELISA, an aliquot of 1:1000 diluted 1 mg/ml C508 antibody was added to each well and incubated for 1 hr. […]
(§2) The Elisa was developed using OPD tablet (Sigma) in development buffer for 15 min at room temperature. […] The binding affinity was measured in a plate reader at 490 nm. In the assay, purified CNTO95 scFv protein from E. coli bound both αvβ3 and αvβ5 integrin proteins (FIG. 14) as shown for integrin-coated ELISA plates and was detected by HRP anti-His Ab as well as the anti-CNTO95 Ab (c508).

integrin αvβ5 [2] = biological target: T2, integrin αvβ5 (Homo sapiens, UniProt P06756); assay: scFv binding ELISA on integrin-coated plates; settings: detected by HRP anti-His Ab and anti-CNTO95 Ab (c508)
T2 construct: purchased Chemicon International Inc
T2 sequence (P06756 31-889 limits assumed): as the sequence (P06756 31-889 limits assumed) above
T2 sequence (P06756 891-1048 partner limits assumed): as the sequence (P06756 891-1048 partner limits assumed) above
T2 sequence (P18084 24-799 partner): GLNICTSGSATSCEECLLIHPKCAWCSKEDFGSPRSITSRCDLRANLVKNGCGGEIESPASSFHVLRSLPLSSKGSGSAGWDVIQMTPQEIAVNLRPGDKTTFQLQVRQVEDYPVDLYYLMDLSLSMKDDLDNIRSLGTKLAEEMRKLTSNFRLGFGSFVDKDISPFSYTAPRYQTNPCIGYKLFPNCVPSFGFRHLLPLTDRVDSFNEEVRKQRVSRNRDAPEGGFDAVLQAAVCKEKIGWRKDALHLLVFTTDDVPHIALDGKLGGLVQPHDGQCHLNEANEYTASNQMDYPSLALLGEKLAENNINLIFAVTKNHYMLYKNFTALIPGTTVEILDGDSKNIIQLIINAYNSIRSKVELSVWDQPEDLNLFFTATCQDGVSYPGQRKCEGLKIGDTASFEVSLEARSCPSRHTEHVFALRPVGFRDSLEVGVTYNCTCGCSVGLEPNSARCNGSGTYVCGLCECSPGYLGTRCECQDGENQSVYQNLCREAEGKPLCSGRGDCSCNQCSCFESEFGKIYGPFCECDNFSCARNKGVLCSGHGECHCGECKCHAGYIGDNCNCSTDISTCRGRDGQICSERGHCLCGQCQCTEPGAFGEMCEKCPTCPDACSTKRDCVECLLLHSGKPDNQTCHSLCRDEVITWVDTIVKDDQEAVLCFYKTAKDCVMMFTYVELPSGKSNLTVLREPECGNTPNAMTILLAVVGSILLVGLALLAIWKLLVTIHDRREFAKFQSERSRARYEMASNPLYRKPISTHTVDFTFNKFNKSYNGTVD
Description: as §1, §2

integrin αvβ3 [3] = biological target: T1, integrin αvβ3; assay: scFv vs Mab integrin competition assay; type: binding; settings: αvβ3 coated plate, CNTO95 mAb at 0.8 nM
Description: (§3) To compare the binding affinity of scFv CNTO95 and CNTO 95 mAb, the 96-well plates were coated with 100 ul of integrin αvβ3 or αvβ5 as described above. CNTO95 mAb was added to each well at 0.8 nM for αvβ3 coated plate or 0.2 nM for αvβ5 coated plate. Controls and scFv purified protein diluted serially at 3-fold with TBST were added to the coated wells in duplicate. The mix of CNTO95 mAb and sFv were incubated at 37° C. for 2 hrs. The detection antibody was 1:10K dilution of peroxidase conjugated affinipure F(ab′)2 fragment Goat anti-human IgG, Fc fragment specific (minimal cross reaction to Bovine, Horse and mouse serum protein) (Jackson Immunoresearch ). The antibody was incubated on the plate 1 hr at 37° C. and the color was developed and read as above. CNTO95 mAb binding to both alpha-V-integrins was competed with the […] (FIGS. 15A and B).

integrin αvβ5 [4] = biological target: T2, integrin αvβ5; assay: scFv vs Mab integrin competition assay; type: binding; settings: αvβ5 coated plate, CNTO95 mAb at 0.2 nM
Description: as §3

binding to integrin-coated ELISA plates (integrin αvβ3 [1])	binding to integrin-coated ELISA plates (integrin αvβ5 [2])	competition with CNTO95 mAb for integrin binding (integrin αvβ3 [3])	competition with CNTO95 mAb for integrin binding (integrin αvβ5 [4])	Compound	binding and internalization (confocal microscopy) (A375.S2 cells)
				COc1cccc2c1C(=O)c1c(O)c3c(c(O)c1C2=O)C[C@@](O)(C(=O)CO)C[C@@H]3O[C@H]1C[C@H](N)[C@H](O)[C@H](C)O1 [free dox, doxorubicin]	drug internalization is evident
bound	bound	effectively competes	effectively competes	CNTO95 scFv: single chain variable fragment of CNTO 95, VH-(Gly4Ser)3-VL, R18L, 6×His tag and Gly4Cys (SEQ ID NO: 4)	

From patent US20090196913A1, “Anti-Alpha-V Immunoliposome Composition, Methods, and Uses” (priority 2007, published 2009)
